Assay results reported in patent US20200262867A1 (WNTRX PHARMACEUTICALS, published 2020).
*1 amine or outer side, *2 acyl side, *3 side chain or, on linkers, in order; H or OH if unused. Bridges are numbered along the chain shown (N, C = ends). Primed or numbered codes have the meaning given here. Where no end group is shown, it is not given here. Side-chain parts run from the residue outwards. [ ]: non-standard residue; d: D form. The star is where a group is joined. peptoid‑Q = (5-amino-5-oxopentyl)glycine, N-substituted glycine, NC(=O)CCCCN(CC(=O)[*:2])[*:1]; Diphenylacetyl = O=C(C(c1ccccc1)c1ccccc1)*; 2Nal = N[C@@H](Cc1ccc2ccccc2c1)C(=O)O; Hydrocinnamoyl = O=C(CCc1ccccc1)*; NMeR = CN[C@@H](CCCNC(=N)N)C(=O)O; Palmitoyl = CCCCCCCCCCCCCCCC(=O)*; Ala(cPr) = N[C@@H](CC1CC1)C(=O)O; hArg = N=C(N)NCCCC[C@H](N)C(=O)O; NMeE = CN[C@@H](CCC(=O)O)C(=O)O; NMeQ = CN[C@@H](CCC(N)=O)C(=O)O; dNMeQ = CN[C@H](CCC(N)=O)C(=O)O; Cha = N[C@@H](CC1CCCCC1)C(=O)O; Cba = N[C@@H](CC1CCC1)C(=O)O; S5 = C=CCCC[C@](C)(N)C(=O)O; Ac6c = NC1(C(=O)O)CCCCC1; PEG4′ = not defined here; Hexanoyl = CCCCCC(=O)*; Propionyl = CCC(=O)*; βAla = NCCC(=O)O

T1: β-catenin (UniProt P35222 1-781, limits assumed)
T1 sequence (looked up): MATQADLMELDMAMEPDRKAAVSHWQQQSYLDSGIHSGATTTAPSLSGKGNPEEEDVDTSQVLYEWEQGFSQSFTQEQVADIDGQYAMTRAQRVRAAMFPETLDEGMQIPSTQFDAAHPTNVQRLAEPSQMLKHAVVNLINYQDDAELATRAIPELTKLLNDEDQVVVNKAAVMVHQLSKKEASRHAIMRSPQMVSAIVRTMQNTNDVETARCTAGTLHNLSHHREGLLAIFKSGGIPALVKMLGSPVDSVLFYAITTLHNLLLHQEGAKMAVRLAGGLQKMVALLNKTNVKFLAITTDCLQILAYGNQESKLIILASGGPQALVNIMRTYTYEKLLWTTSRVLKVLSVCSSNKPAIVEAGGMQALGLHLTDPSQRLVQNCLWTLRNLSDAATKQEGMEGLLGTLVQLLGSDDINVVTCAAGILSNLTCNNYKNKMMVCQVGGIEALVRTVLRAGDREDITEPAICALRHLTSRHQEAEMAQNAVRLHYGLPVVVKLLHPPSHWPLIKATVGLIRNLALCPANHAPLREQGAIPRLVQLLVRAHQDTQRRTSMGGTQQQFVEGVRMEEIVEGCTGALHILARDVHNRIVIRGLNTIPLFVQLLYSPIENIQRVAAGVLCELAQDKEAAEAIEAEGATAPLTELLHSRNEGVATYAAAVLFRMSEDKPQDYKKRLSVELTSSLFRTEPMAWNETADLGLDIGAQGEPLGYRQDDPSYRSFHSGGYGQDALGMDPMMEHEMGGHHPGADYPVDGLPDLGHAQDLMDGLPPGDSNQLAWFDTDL

T2: β-catenin, P35222
T2 chain: T1 sequence (looked up)

B1: SEQ ID NO: 108 (peptide)
peptide: L[dNMeQ]TLR[S5]IQR[S5][Cba][2Nal]
modifications: staple 6-10; not fully specified (N-terminus, C-terminus); printed as L(N-methylQ)TLRXIQRX(CBA)(2-Nal), X/X stapled, (S) α-methyl, N-terminal Ac, C-terminal NH2
B2: SEQ ID NO: 163 (peptide)
peptide: HRQRSLQT[Cha]R[S5]IQR[S5][Cba][2Nal]
modifications: staple 11-15; not fully specified (residues 3, 7, N-terminus, C-terminus); printed as HR(N-methylQ)RSL(N-methylQ)T(Cha)RXIQRX(CBA)(2-Nal), X/X stapled, (S) α-methyl, N-terminal Ac, C-terminal NH2
B3: SEQ ID NO: 180 (peptide)
peptide: Ac-HRQRSLQTLR[S5]IQR[S5][Cha][2Nal]-NH2
modifications: staple 11-15
SMILES: CC[C@H](C)[C@@H]1NC(=O)[C@@](C)(NC(=O)[C@H](CCCNC(=N)N)NC(=O)[C@H](CC(C)C)NC(=O)[C@@H](NC(=O)[C@H](CCC(N)=O)NC(=O)[C@H](CC(C)C)NC(=O)[C@H](CO)NC(=O)[C@H](CCCNC(=N)N)NC(=O)[C@H](CCC(N)=O)NC(=O)[C@H](CCCNC(=N)N)NC(=O)[C@H](Cc2c[nH]cn2)NC(C)=O)[C@@H](C)O)CCCC=CCCC[C@@](C)(C(=O)N[C@@H](CC2CCCCC2)C(=O)N[C@@H](Cc2ccc3ccccc3c2)C(N)=O)NC(=O)[C@H](CCCNC(=N)N)NC(=O)[C@H](CCC(N)=O)NC1=O
B4: SEQ ID NO: 116 (peptide)
peptide: L[dNMeQ]TLR[S5]I[dNMeQ]R[S5][Cba][2Nal]
modifications: staple 6-10; not fully specified (N-terminus, C-terminus); printed as L(N-methylQ)TLRXI(N-methylQ)RX(CBA)(2-Nal), X/X stapled, (S) α-methyl, N-terminal Ac, C-terminal NH2

Each binder was assayed against T1, β-catenin (assay: cell-based or functional assay).
Ac-HRQRSLQTLR[S5]IQR[S5][Cba][2Nal]-NH2 (staple 11-15) [SEQ ID NO: 147] was tested, and the “IC50, Wnt/Beta-Catenin-LEF-TCF-bla HCT116 inhibitor screen” value was 1540 nM. For B1, the “IC50, Wnt/Beta-Catenin-LEF-TCF-bla HCT116 inhibitor screen” value was 3160 nM. Ac-HR[NMeE]RSL[NMeQ]TLR[S5]IQR[S5][Cba][2Nal]-NH2 (staple 11-15) [SEQ ID NO: 154] was tested, and the “IC50, Wnt/Beta-Catenin-LEF-TCF-bla HCT116 inhibitor screen” value was 2260 nM. For B2, the “IC50, Wnt/Beta-Catenin-LEF-TCF-bla HCT116 inhibitor screen” value was 4430 nM. In the case of Ac-HRQRSLQTLR[S5]IQR[S5][Ac6c][2Nal]-NH2 (staple 11-15) [SEQ ID NO: 177], the “IC50, Wnt/Beta-Catenin-LEF-TCF-bla HCT116 inhibitor screen” value is reported as 4450 nM. Ac-HRQRSLQTLR[S5]IQR[S5][Ala(cPr)][2Nal]-NH2 (staple 11-15) [SEQ ID NO: 162] was tested, and the “IC50, Wnt/Beta-Catenin-LEF-TCF-bla HCT116 inhibitor screen” value was 7050 nM. B3 was tested, and the “IC50, Wnt/Beta-Catenin-LEF-TCF-bla HCT116 inhibitor screen” value was 2210 nM. Ac-HR[NMeQ]RSL[NMeQ]TLR[S5]IQR[S5][Cha][2Nal]-NH2 (staple 11-15; also: N-methylQ at 3 and 7: D or L (both stated)) [SEQ ID NO: 181] was tested, and the “IC50, Wnt/Beta-Catenin-LEF-TCF-bla HCT116 inhibitor screen” value was 4460 nM.

The binders below were run against T1, β-catenin (assay: ALPHA Screen (BCL9/β-catenin);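 also: bead proximity readout with the polypeptide linked to donor beads and β-catenin fixed on acceptor beads, their binding bringing the beads close enough to emit signal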).
Source text: In this assay, a polypeptide is conjugated to a donor bead and its target protein (i.e., β-catenin) is attached to an acceptor bead. When the two beads are in proximity due to the binding of the polypeptide to the target protein, a signal is generated and the binding affinity of the polypeptide can be quantitatively calculated. The assay may be conducted in the presence or absence of an unconjugated control polypeptide.
For Ac-HRQRSLQTLR[S5]IQR[S5][Cba][2Nal]-NH2 (staple 11-15) [SEQ ID NO: 147], the IC50 was 186 nM. Work on B1 yielded an IC50 of 408 nM. In the case of Ac-HR[NMeE]RSL[NMeQ]TLR[S5]IQR[S5][Cba][2Nal]-NH2 (staple 11-15) [SEQ ID NO: 154], the IC50 is reported as 661 nM. For B2, the IC50 was 195 nM. For Ac-HRQRSLQTLR[S5]IQR[S5][Ac6c][2Nal]-NH2 (staple 11-15) [SEQ ID NO: 177], the IC50 was 211 nM. Work on Ac-HRQRSLQTLR[S5]IQR[S5][Ala(cPr)][2Nal]-NH2 (staple 11-15) [SEQ ID NO: 162] yielded an IC50 of 322 nM. Work on B3 yielded an IC50 of 138 nM. Work on Ac-HR[NMeQ]RSL[NMeQ]TLR[S5]IQR[S5][Cha][2Nal]-NH2 (staple 11-15; also: N-methylQ at 3 and 7: D or L (both stated)) [SEQ ID NO: 181] yielded an IC50 of 186 nM. In the case of B4, the IC50 is reported as 26900 nM. In the case of Ac-RSLQTLR[S5]IQR[S5]L[2Nal]-NH2 (staple 8-12; not fully specified; printed as RSLQTLRXIQRXL(2-Nal)) [SEQ ID NO: 4], the IC50 is reported as 1910 nM. Binder Propionyl-L[NMeQ]TLR[S5]IQR[S5][Cba][2Nal]-NH2 (staple 6-10; also: N-methyl-Gln at 2: filing says both D and L) [SEQ ID NO: 135] has an IC50 of 8540 nM. In the case of Hexanoyl-L[NMeQ]TLR[S5]IQR[S5][Cba][2Nal]-NH2 (staple 6-10; also: N-methyl-Gln at 2: filing says both D and L) [SEQ ID NO: 136], the IC50 is reported as 3520 nM. In the case of Hydrocinnamoyl-L[NMeQ]TLR[S5]IQR[S5][Cba][2Nal]-NH2 (staple 6-10; also: N-methyl-Gln at 2: filing says both D and L) [SEQ ID NO: 137], the IC50 is reported as 8360 nM. Work on Ac-HRQ[hArg]SLQTLR[S5]IQR[S5][Cba][2Nal]-NH2 (staple 11-15) [SEQ ID NO: 167] yielded an IC50 of 356 nM. Work on {2‑cyclohexylacetyl}-L[NMeQ]TLR[S5]IQR[S5][Cba][2Nal]-NH2 (staple 6-10; also: N-methyl-Gln at 2: filing says both D and L) [SEQ ID NO: 138] yielded an IC50 of 3820 nM. Ac-HRQ[NMeR]SLQTLR[S5]IQR[S5][Cba][2Nal]-NH2 (staple 11-15) [SEQ ID NO: 168] was tested, and the IC50 was 434 nM. Diphenylacetyl-L[NMeQ]TLR[S5]IQR[S5][Cba][2Nal]-NH2 (staple 6-10; also: N-methyl-Gln at 2: filing says both D and L) [SEQ ID NO: 139] gave an IC50 of 4580 nM. Ac-HRQRSL[peptoid‑Q]TLR[S5]IQR[S5][Cba][2Nal]-NH2 (staple 11-15) [SEQ ID NO: 169] showed an IC50 of 328 nM. Work on {3,5‑dihydroxybenzoic acid}-L[NMeQ]TLR[S5]IQR[S5][Cba][2Nal]-NH2 (staple 6-10; also: N-methyl-Gln at 2: filing says both D and L) [SEQ ID NO: 140] yielded an IC50 of 8160 nM.

Molecular target: T2, β-catenin, P35222
Assay: cell-based or functional assay
With LQTLR[S5]IQR[S5]L[2Nal][βAla][βAla]GRKKRRQRRRPQK([PEG4′-Palmitoyl]) (staple 6-10) [SEQ ID NO: 34a] the IC50, Colo320DM cell viability was 20000 nM.

Molecular target: T2, β-catenin, P35222
Assay: ALPHA Screen (BCL9/β-catenin)
In the case of LQTLR[S5]IQR[S5]L[2Nal][βAla][βAla]GRKKRRQRRRPQK([PEG4′-Palmitoyl]) (staple 6-10) [SEQ ID NO: 34a], the IC50 is reported as 1380 nM.
